Assays:
Assay in all cases: BLI
Conditions in all cases: both partners purified
SARS-CoV-1 RBD = SARS-CoV-1 RBD (SARS-CoV (SARS-CoV-1), isolate not …, UniProt P59594)
bat RaTG12-CoV RBD = bat RaTG12-CoV RBD (Bat coronavirus RaTG13 (printed as …, UniProt A0ABF7PLN6))
[1] = target: T1, SARS-CoV-2 RBD (residues 319-541), ancestral strain (SARS-CoV-2, UniProt P0DTC2)
T1 construct: source: Expi293, purified (Talon resin)

Measured: binding result

B1: GAR03, human IgG1 monoclonal antibody (antibody, V domains shown)
VH: QVQLVQSGAEVKKPGASVKVSCKASGYTFSSYDINWVRQAPGQGLEWMGWMSPNSGNTGYAQKFQGRVTMTRSTSMSTAYMELSSLRSEDTAVYFCARMSSSLTNYLDYWGQGTLVTVSS
VL: SYVLTQPPSVAVAPGQTARIRCGENDIGSKNVHWYQQKSGQAPVLVVYDDSDRPSGIPERFSGSNSGNTATLTISRVEAGDEADYYCQVWDSTGDHPDVVFGGGTKLTVL
notes: source: ExpiCHO, purified (Protein G resin)
binds: all assays above

Source: paper PMC9907207 (Nature Communications, 2023)
